Test results reported in US20210079040.

T1: Link N (human Link N, DHLSDNYTLDHDRAIH)
T1 sequence: DHLSDNYTLDHDRAIH


system: T1, Link N (human Link N, DHLSDNYTLDHDRAIH)

Sequence of MMP 12 (P39900 106-470): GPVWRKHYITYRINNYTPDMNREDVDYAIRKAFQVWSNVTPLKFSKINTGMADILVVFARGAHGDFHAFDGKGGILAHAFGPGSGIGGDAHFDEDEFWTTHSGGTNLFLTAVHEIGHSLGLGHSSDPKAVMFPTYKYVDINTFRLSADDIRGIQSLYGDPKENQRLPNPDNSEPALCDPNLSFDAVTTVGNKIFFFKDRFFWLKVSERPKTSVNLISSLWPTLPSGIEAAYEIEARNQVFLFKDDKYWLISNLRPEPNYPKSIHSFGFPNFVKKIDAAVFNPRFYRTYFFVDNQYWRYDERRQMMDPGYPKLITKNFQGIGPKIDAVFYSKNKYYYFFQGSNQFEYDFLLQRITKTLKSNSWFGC

Row | Molecule | peak area intensity of the 1922 Da Link 1-16 peptide (mass spectrometry) after proteinase digest
1 | ADAMTS 5 | un-affected by MMPs 3, 7, 12, 13, ADAMTS 4,5, HTRA1, and cathepsins B, and L
2 | HTRA1 | un-affected by MMPs 3, 7, 12, 13, ADAMTS 4,5, HTRA1, and cathepsins B, and L
3 | MMP 3 | un-affected by MMPs 3, 7, 12, 13, ADAMTS 4,5, HTRA1, and cathepsins B, and L
4 | MMP 12 | un-affected by MMPs 3, 7, 12, 13, ADAMTS 4,5, HTRA1, and cathepsins B, and L
5 | MMP 13 | un-affected by MMPs 3, 7, 12, 13, ADAMTS 4,5, HTRA1, and cathepsins B, and L
6 | cathepsin B | un-affected by MMPs 3, 7, 12, 13, ADAMTS 4,5, HTRA1, and cathepsins B, and L
7 | cathepsin L | un-affected by MMPs 3, 7, 12, 13, ADAMTS 4,5, HTRA1, and cathepsins B, and L
8 | ADAMTS 4 (enzyme, UniProt O75173 213-837, looked up, species assumed) A disintegrin and metalloproteinase with thrombospondin motifs 4: FASLSRFVETLVVADDKMAAFHGAGLKRYLLTVMAAAAKAFKHPSIRNPVSLVVTRLVILGSGEEGPQVGPSAAQTLRSFCAWQRGLNTPEDSDPDHFDTAILFTRQDLCGVSTCDTLGMADVGTVCDPARSCAIVEDDGLQSAFTAAHELGHVFNMLHDNSKPCISLNGPLSTSRHVMAPVMAHVDPEEPWSPCSARFITDFLDNGYGHCLLDKPEAPLHLPVTFPGKDYDADRQCQLTFGPDSRHCPQLPPPCAALWCSGHLNGHAMCQTKHSPWADGTPCGPAQACMGGRCLHMDQLQDFNIPQAGGWGPWGPWGDCSRTCGGGVQFSSRDCTRPVPRNGGKYCEGRRTRFRSCNTEDCPTGSALTFREEQCAAYNHRTDLFKSFPGPMDWVPRYTGVAPQDQCKLTCQAQALGYYYVLEPRVVDGTPCSPDSSSVCVQGRCIHAGCDRIIGSKKKFDKCMVCGGDGSGCSKQSGSFRKFRYGYNNVVTIPAGATHILVRQQGNPGHRSIYLALKLPDGSYALNGEYTLMPSPTDVVLPGAVSLRYSGATAASETLSGHGPLAQPLTLQVLVAGNPQDTRLRYSFFVPRPTPSTPRPTPQDWLHRRAQILEILRRRPWAGRK | un-affected by MMPs 3, 7, 12, 13, ADAMTS 4,5, HTRA1, and cathepsins B, and L
9 | MMP 7 (enzyme, UniProt P09237 95-267, looked up, species assumed) Matrilysin: YSLFPNSPKWTSKVVTYRIVSYTRDLPHITVDRLVSKALNMWGKEIPLHFRKVVWGTADIMIGFARGAHGDSYPFDGPGNTLAHAFAPGTGLGGDAHFDEDERWTDGSSLGINFLYAATHELGHSLGMGHSSDPNAVMYPTYGNGDPQNFKLSQDDIKGIQKLYGKRSNSRKK | un-affected by MMPs 3, 7, 12, 13, ADAMTS 4,5, HTRA1, and cathepsins B, and L
10 | cathepsin K (enzyme, UniProt P43235 115-329, looked up, species assumed) Cathepsin K: APDSVDYRKKGYVTPVKNQGQCGSCWAFSSVGALEGQLKKKTGKLLNLSPQNLVDCVSENDGCGGGYMTNAFQYVQKNRGIDSEDAYPYVGQEESCMYNPTGKAAKCRGYREIPEGNEKALKRAVARVGPVSVAIDASLTSFQFYSKGVYYDESCNSDNLNHAVLAVGYGIQKGNKHWIIKNSWGENWGNKGYILMARNKNNACGIANLASFPKM | significantly diminished already after 30 minutes and was hardly detectable at 2 and 24 hours incubation with cathepsin K
